The Kd is the free concentration of one partner at which half of the binding sites on the other are occupied at equilibrium, for simple one-to-one binding.

The source of these data is paper PMC8664833.

The data set addresses ZAP-S (short isoform of zinc-finger antiviral protein) (human, UniProt Q7Z2W4-2 1-699). Briefly: MST; 5 mM Mg2+. As to conditions: protein: recombinant, tags: N-terminal 6xHis-SUMO, label: 3' pCp-Cy5.

Sequence of ZAP-S (short isoform of zinc-finger antiviral protein) (Q7Z2W4 other isoform, or with tags, fused parts or gaps): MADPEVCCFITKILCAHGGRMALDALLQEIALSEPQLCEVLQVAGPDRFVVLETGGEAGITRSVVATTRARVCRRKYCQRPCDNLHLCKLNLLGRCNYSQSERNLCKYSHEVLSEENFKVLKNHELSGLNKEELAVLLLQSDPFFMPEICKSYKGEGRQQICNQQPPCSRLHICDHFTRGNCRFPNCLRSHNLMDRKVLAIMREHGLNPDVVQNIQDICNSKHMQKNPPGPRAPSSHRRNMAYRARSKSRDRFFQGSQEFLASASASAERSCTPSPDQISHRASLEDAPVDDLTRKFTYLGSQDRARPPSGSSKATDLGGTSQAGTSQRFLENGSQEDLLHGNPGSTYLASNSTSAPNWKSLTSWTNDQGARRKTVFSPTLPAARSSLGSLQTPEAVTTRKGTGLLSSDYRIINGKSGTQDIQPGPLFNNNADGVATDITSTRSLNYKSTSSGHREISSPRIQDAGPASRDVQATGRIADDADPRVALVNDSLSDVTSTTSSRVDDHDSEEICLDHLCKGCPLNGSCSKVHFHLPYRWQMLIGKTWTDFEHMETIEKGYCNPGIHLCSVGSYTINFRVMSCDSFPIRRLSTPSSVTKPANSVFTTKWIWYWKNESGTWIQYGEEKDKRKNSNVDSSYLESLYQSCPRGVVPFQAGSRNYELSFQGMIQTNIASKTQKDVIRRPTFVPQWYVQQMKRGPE

B1: dSL2 mutant (structured_RNA)
RNA: UCGUUUUUAAACGGGUUUGCGGUGUAAGUGCAGCCCGUCUUACACCGUGCGGCACAGGCACUAGUACUGAUGUCGU
For the molecule B1, the Kd (two consecutive stem-loops) was 672 ± 164 nM.

B2: dSL3 mutant (structured_RNA)
RNA: UCGUUUUUAAACGGGUUUGCGGUGUAAGUGCAGCCCGUCUUACACCGUAUACAGGGCU
B2: the dissociation constant (Kd) (shorter pseudoknot (predicted)) was 175 ± 64 nM.
On to UCGUUUUUAAACGGGUUUGCGGUGUAAGUGCAGCCCGUCUUACACCGU (structured_RNA) [dSL2+3 mutant (SL1 only)], for which the binding result (hairpin) is listed as “no binding”.

B3: Compensatory mutant (structured_RNA)
RNA: UCGUUUUUAAACGGGUUUGGGGUGUAAGUGCAGCCCGUCUUACACCCUGGGGCACAGGCACUAGUACUGAUGUCCUAUACAGGGCU
Consider B3, for which the Kd (pseudoknot (predicted)) is 128 ± 29 nM.
